Source: patent US20250011363A1, “OPTIMIZED SHORTENED PEPTIDE THAT BINDS TO ACETYLCHOLINE RECEPTOR, AND USE THEREOF” (SKINMED CO., LTD., priority 2021, published 2025)

Target: acetylcholine receptor
Assay: SPR, peptide at 10 uM on acetylcholine receptor

Binding affinity (RU)	Binder
20 RU	RFSDK [5mer-689]
12 RU	KFDWK [5mer-698]
17 RU	RCKWR [5mer-988]
11 RU	RCEHR [5mer-696]
32 RU	RMTKK [5mer-996]
15 RU	RNDKK [5mer-992]
22 RU	RAHWR [5mer-987]
26 RU	KKPDR [5mer-695]
17 RU	RPSKK [5mer-693]
18 RU	KFTDK [5mer-995]
15 RU	RDHWK [5mer-692]
27 RU	KEKFR [5mer-993]
18 RU	RCTAK [5mer-998]
30 RU	RYPHR [5mer-997]
12 RU	RAEIK [5mer-690]
22 RU	RMEIR [5mer-687]
12 RU	KEEPK [5mer-990]
24 RU	KNNAR [5mer-694]
31 RU	RPHFK [5mer-688]
24 RU	RPEFR [5mer-991]
31 RU	RCTAR [5mer-989]
26 RU	KAWVR [5mer-994]
16 RU	KEWEK [5mer-691]
25 RU	KASKK [5mer-697]

Target: acetylcholine receptor
Assay: SPR, peptide at 10 uM, acetylcholine receptor immobilized on chip

Binding affinity (RU)	Binder
13 RU	KKSMK [5mer-621]
20 RU	KCCNR [5mer-615]
21 RU	KKKFK [5mer-921]
25 RU	KDCFK [5mer-925]
13 RU	RKEGK [5mer-604]
17 RU	RPCFR [5mer-910]
26 RU	RPTMR [5mer-914]
19 RU	RMSWK [5mer-618]
33 RU	RINVK [5mer-909]
21 RU	RHHKR [5mer-903]
12 RU	RCHER [5mer-916]
29 RU	RNTWK [5mer-614]
27 RU	RKEPK [5mer-603]
22 RU	RKPKR [5mer-622]
30 RU	RPSPR [5mer-905]
19 RU	RDEDR [5mer-927]
22 RU	RECFK [5mer-605]
28 RU	RYCAK [5mer-617]
16 RU	KKMGR [5mer-912]
30 RU	KCTNR [5mer-901]
19 RU	KCSFK [5mer-619]
23 RU	RCMHK [5mer-620]
23 RU	KCTDK [5mer-612]
12 RU	RNNVR [5mer-918]
32 RU	KNNIK [5mer-919]
25 RU	RIEER [5mer-607]
18 RU	KDSVR [5mer-907]
22 RU	KEHER [5mer-624]

Binding affinity (RU)	Binder
32 RU	RKTMK [5mer-609]
19 RU	RYMDR [5mer-628]
13 RU	RFCFK [5mer-601]
30 RU	KMSPK [5mer-627]
23 RU	REDPK [5mer-902]
14 RU	REHGK [5mer-911]
15 RU	KPKIK [5mer-920]
27 RU	RNEKK [5mer-924]
25 RU	RIHWK [5mer-606]
12 RU	KMSVR [5mer-602]
11 RU	KCAPR [5mer-917]
16 RU	KCDDK [5mer-610]
15 RU	KFCPR [5mer-616]
28 RU	KMTHR [5mer-915]
19 RU	KNTGR [5mer-623]
19 RU	KCWMK [5mer-923]
23 RU	KPDPK [5mer-904]
14 RU	RMWKR [5mer-922]
25 RU	RCHFK [5mer-908]
12 RU	KICMR [5mer-626]
31 RU	RKHAK [5mer-906]
33 RU	KDHIR [5mer-611]
22 RU	RNCWK [5mer-926]
33 RU	KMCDR [5mer-625]
13 RU	KHTFK [5mer-913]
20 RU	RDSER [5mer-608]
20 RU	RAEFR [5mer-613]
